We go through 57 sequences from the supplement of paper PMC11780869.

For the data set, the system named is Bacillus subtilis. Nature of the data set: cleaved RNA product abundance (RNA/gDNA barcode ratio) relative to median wild-type variant (ratio to wild type); higher = more accumulation of the downstream cleavage product. Summed up:
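B. subtilis strains with chromosomally integrated reporter mRNAs (truncated aprE or tetM) holding barcoded, mutagenized RNase Y cleavage-site windows grew in LB at 37°C from OD600 0.0003 to 0.3. Cleaved product abundance is each construct's RNA:gDNA barcode ratio, scaled to the median construct with the unmutated site. It came from sequencing barcodes of gel-selected, reverse-transcribed cleaved RNA and of genomic DNA.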

Where [1] appears, read: experiment (reporter, strain, medium): exp 2b: truncated aprE reporter, strain BJT200, cleavage site: cggR-gapA (positions -7 to +36 mutated).
Setting [2] is: experiment (reporter, strain, medium): exp 4a: truncated aprE reporter, strain BJT201 with 2% xylose (RNase J1 expressed), cleavage site: cggR-gapA (positions -7 to +36 mutated).
[3] abbreviates: experiment (reporter, strain, medium): exp 8a: truncated aprE reporter, strain BJT201 with 2% xylose (RNase J1 expressed), cleavage site: glnRA (positions -5 to +31 mutated).

Consider “ACAGACGAAGGAGCCGCAAAGAAGTTATTAAGCGATGAATTATCCCTCAATATAAATATCTCTCACTTATTTAAA”, for which the “cleaved RNA product abundance” value amounted to 0.101 under setting [1] and 0.101 under setting [2]. For “CGACATGTCCCGCTTCTTTCATTAATCCGTTCGCAACTGTTTTGCTATATATATTTACCTTTTAAGAGGAGGAAT”, the “cleaved RNA product abundance” value under setting [3] stood at 0.324.

For “ACAGACGAAGGAGCCGCAACGAAGTTATAAAGGGATGAATAATCCCTCAATATAAATATCTCTCACTTATTTAAA”, under setting [2], the “cleaved RNA product abundance” value was found to be 0.54.

In the case of “ACAGACGAAGGAGCCGCAAAGACGTTATTAAGGGATGAATAATCCGTCAATATAAATATCTCTCACTTATTTAAA”, the “cleaved RNA product abundance” value under setting [2] was found to be 0.192.

Turning to “ACAGACGAAGGAGCCGCAAAGAAGTTATTAAGGGATGAAGCATCCCTCAATATAAATATCTCTCACTTATTTAAA”, the “cleaved RNA product abundance” value under setting [2] is 0.748. As for “CGACATGTCCCGCTTCTTTCATTAAACCGTTAGCAACTGTTTTGCTATATACTTTTACCTTTTAAGAGGAGGAAT”, under setting [3], the “cleaved RNA product abundance” value was 0.534. On the same count and under the same terms, under “CGACATGTCCCGCTTCTTTCATTAATCCGTTACCAACTGTTTTGCTATATACATCTACCTTTTAAGAGGAGGAAT” stands 0.23. Still for that read-out and setting: under “CGACATGTCCCGCTTCTTTCATTAATCCGTTAGCAAGTGATTTGCTATATACATTTACCTTTTAAGAGGAGGAAT” stands 1.25. As for “ACAGACGAAGGAGCCGCAAAGAAGTTGTTAAGGGATGAATAATCACTCAATATAAATATCTCTCACTTATTTAAA”, the “cleaved RNA product abundance” value under setting [2] was 0.0768. As to “CGACATGTCCCGCTTCTTTCATTAATCCGTTAGCAACTGTTTTGCTATATACGTTTACCTTTTAAGAGGAGGAAT”, under setting [3], the “cleaved RNA product abundance” value is 0.361. On the same count and under the same terms, under “CGACATGTCCCGCTTCTTTCATTAATCCGTTAACAACTGTTTTGCTATATATATTTACCTTTTAAGAGGAGGAAT” stands 0.2.

As to “ACAGACGAAGGAGCCGCAAAGAAGATATTAAGGGATGAATAATCCTTCAATATAAATATCTCTCACTTATTTAAA”, the “cleaved RNA product abundance” value under setting [2] is 0.762. For “ACAGACGAAGGAGCCGCAAAGAAGTTATTAAGGGATGAAAAACCCCTCAATATAAATATCTCTCACTTATTTAAA”, the “cleaved RNA product abundance” value reads like this: under setting [1], 0.477; under setting [2], 0.485.

With “ACAGACGAAGGAGCCGCAAAGAAGTTAATAAGGGATGAATAATCCCTCAATATAAATGTCTCTCACTTATTTAAA”, the “cleaved RNA product abundance” value under setting [2] worked out at 0.303.

“ACAGACGAAGGAGCCGCAAATAAGTTATTAAGAGATGAATAATCCCTCAATATAAATATTTCTCACTTATTTAAA”: the “cleaved RNA product abundance” value under setting [2] worked out at 0.124. For “CGACATGTCCCGCTTCTTTCATTATTCCGTTAACAACTGTTTTGCTATATTCATTTACCTTTTAAGAGGAGGAAT”, the “cleaved RNA product abundance” value under setting [3] was 0.155. Regarding “ACAGACGAAGGAGCCGCAAAGAAGTTATTAAGGGATGAATAATCCCTGAATATAAACATCTCTCACTTATTTAAA”, under setting [2], the “cleaved RNA product abundance” value amounted to 0.413. Take “CGACATGTCCCGCTTCTTTCATTAATCCGTTAGCAACTATTTTGCTATATACAATTACCTTTTAAGAGGAGGAAT”: under setting [3], the “cleaved RNA product abundance” value was 1.98. On to “ACAGACGAAGGAGCCGCAAAGAAGTGATTAACGGATGAATAATCCCTCAATATAAATATCTCTCACTTATTTAAA”, for which the “cleaved RNA product abundance” value runs as follows: under setting [1], 0.129; under setting [2], 0.0991. Regarding “ACAGACGAAGGAGCCGCATAGAAGTTATTAAGGGATGAAGAATCCCTCAATATAAATATCTCTCACTTATTTAAA”, the “cleaved RNA product abundance” value under setting [2] was 0.861. In the case of “ACAGACGAAGGAGCCGCAAAGAAGTTATTACGTGATGAATAATCCCTCAATATAAATATCTCTCACTTATTTAAA”, the “cleaved RNA product abundance” value reads like this: under setting [1], 0.0928; under setting [2], 0.113. As to “CGACATGTCCCGCTTCTTTCATTATACCGTTAGCAACTGTTTTGCTATATACATTTACCTTTTAAGAGGAGGAAT”, under setting [3], the “cleaved RNA product abundance” value worked out at 2.04.

Take “ACAGACGAAGGAGCCGCAAAGAAGTTATTAAGGGTTGAATAATCCCTCCATATAAATATCTCTCACTTATTTAAA”: the “cleaved RNA product abundance” value under setting [2] came to 0.0987. With “ACAGACGAAGGAGCCGCAAAGAAGTTATTAAGGGATTAATAATCCCTCAATATAAAGATCTCTCACTTATTTAAA”, the “cleaved RNA product abundance” value by setting is: under setting [1], 0.486; under setting [2], 0.818. Take “ACAGACGAAGGAGCCGCAAAGAAGTTCTTAAGGGATGAATATTCCCTCAATATAAATATCTCTCACTTATTTAAA”: the “cleaved RNA product abundance” value under setting [2] is 0.245. On the same count and under the same terms, under “ACAGACGAAGGAGCCGCAAAGAAGTTATTAAGGAATGAATAATCCCTCCATATAAATATCTCTCACTTATTTAAA” stands 0.0857. As to “ACAGACGAAGGAGCCGCAACGAAGTTATTAAGGGATGAATAATACCTCAATATAAATATCTCTCACTTATTTAAA”, the “cleaved RNA product abundance” value was determined as 0.111 under setting [1] and 0.18 under setting [2]. In the case of “CGACATGTCCCGCTTCTTTCATTAATCCGTTAACAACTGTTTTGCTATATACATTTTCCTTTTAAGAGGAGGAAT”, the “cleaved RNA product abundance” value under setting [3] amounted to 0.0904.

On to “ACAGACGAAGGAGCCGCAAAGAAGTTATTAATGAATGAATAAACCCTCAATATAAATATCTCTCACTTATTTAAA”, for which, under setting [2], the “cleaved RNA product abundance” value worked out at 0.133. As to “ACAGACGAAGGAGCCGCAAAGAAATTATTAAGGGATGAATAAACCCTCAATATAAATATCTCTCACTTATTTAAA”, the “cleaved RNA product abundance” value came out at 0.405 under setting [1] and 0.49 under setting [2].

Regarding “CGACATGTCCCGCTTCTTTCATTAATCCGTGAGCAACTGTTTTGCTATATATATTTACCTTTTAAGAGGAGGAAT”, under setting [3], the “cleaved RNA product abundance” value came to 0.87. For the sequence “ACAGACGAAGGAGCCGCAAAAAAGTTATTAGGGGATGAATAATCCCTCAATATAAATATCTCTCACTTATTTAAA”, the “cleaved RNA product abundance” value under setting [2] stood at 0.608. Same read-out and setting: under “ACAGACGAAGGAGCCGCAAAGATGCTATTAAGGGATGAATAATCCCTCAATATAAATATCTCTCACTTATTTAAA” stands 0.848; under “ACAGACGAAGGAGCCGCAAAGAAGTTATTAAGGAATGAATAATCCCTCAATATAAGTATCTCTCACTTATTTAAA”, 0.0312. For the sequence “CGACATGTCCCGCTTCTTTCATTATTCCGTTAGCAAATGTTTTGCTATATACATTTACCTTTTAAGAGGAGGAAT”, the “cleaved RNA product abundance” value under setting [3] turned out to be 1.75. “ACAGACGAAGGAGCCGCAGAGAAGTTATTAAGCGATGAATAATCCCTCAATATAAATATCTCTCACTTATTTAAA”: the “cleaved RNA product abundance” value under setting [2] worked out at 0.171.

On to “ACAGACGAAGGAGCCGCAAATAAATTATTAAGGGATGAATAATCCCCCAATATAAATATCTCTCACTTATTTAAA”, for which the “cleaved RNA product abundance” value under setting [2] is 0.381.

Consider “CGACATGTCCCGCTTCTTTCATTAATCCGTTAGCAACTGTTTTGCTATATACACGTACCTTTTAAGAGGAGGAAT”, for which, under setting [3], the “cleaved RNA product abundance” value was 0.835. Turning to “ACAGACGAAGGAGCCGCAAAGAAGTTATTAAGGGATTAATAATCCCTCAATATACATATCTCTCACTTATTTAAA”, under setting [2], the “cleaved RNA product abundance” value was 0.799. Turning to “ACAGACGAAGGAGCCGCAAAGAAATTATTAAGGGATGAATAATCCCTCAATATAAAAATCTCTCACTTATTTAAA”, the “cleaved RNA product abundance” value under setting [2] is 0.568. On to “ACAGACGAAGGAGCCGCAAAGAAGTTATTAGGGGAAGAATAATCCCTCAATATAAATATCTCTCACTTATTTAAA”, for which the “cleaved RNA product abundance” value under setting [1] is 0.278. As for “CGACATGTCCCGCTTCTTTCATTAATCCGTTAGCAACTGATTTGCTTTATACATTTACCTTTTAAGAGGAGGAAT”, under setting [3], the “cleaved RNA product abundance” value is 0.282. In the case of “ACAGACGAAGGAGCCGCAAAGAAGTTATTGAGGGATGAATAATCCCTAAATATAAATATCTCTCACTTATTTAAA”, the “cleaved RNA product abundance” value under setting [2] was 0.897. The same measure, in the same setting: under “ACAGACGAAGGAGCCGCAAAGAAGTTATTAACGGATGAATAATCCCTCAATATAAATGTCTCTCACTTATTTAAA” stands 0.0543; under “ACAGACGAAGGAGCCGCAAAGAAGTTATTAAGGGACGAATAACCCCTCAATATAAATATCTCTCACTTATTTAAA”, 0.19. In the case of “ACAGACGAAGGAGCCGCAAAGAAGGTATTAAGGGATGAAAAATCCCTCAATATAAATATCTCTCACTTATTTAAA”, the “cleaved RNA product abundance” value under setting [1] was found to be 1.25. Regarding “ACAGACGAAGGAGCCGCAAAGAAGTTATTAAGGGCTGAATAATCCCTCTATATAAATATCTCTCACTTATTTAAA”, the “cleaved RNA product abundance” value under setting [2] was 0.255. For “ACAGACGAAGGAGCCGCAAAGAAGTAATTAAGGGATGAATAATCCCTCACTATAAATATCTCTCACTTATTTAAA”, the “cleaved RNA product abundance” value is, setting by setting: under setting [1], 0.135; under setting [2], 0.168. For “ACAGACGAAGGAGCCGCAAAGAAGTCATTAAAGGATGAATAATCCCTCAATATAAATATCTCTCACTTATTTAAA”, the “cleaved RNA product abundance” value under setting [2] came to 0.158.

Regarding “ACAGACGAAGGAGCCGCAAAGAAGTTATTAAGGGATGAATATTTCCTCAATATAAATATCTCTCACTTATTTAAA”, the “cleaved RNA product abundance” value amounted to 0.188 under setting [1] and 0.186 under setting [2]. As to “ACAGACGAAGGAGCCGCAAAGAAGTTATTAAGGGATGAATAATCCATCAATATACATATCTCTCACTTATTTAAA”, the “cleaved RNA product abundance” value under setting [2] came to 0.296. Take “ACAGACGAAGGAGCCGCAAAGGAGTTATTAAGGGATGAATAATACCTCAATATAAATATCTCTCACTTATTTAAA”: the “cleaved RNA product abundance” value is, setting by setting: under setting [1], 0.131; under setting [2], 0.192. Turning to “ACAGACGAAGGAGCCGCAAAGAACTTATTAAGGGATGAATAATCCCTCTATATAAATATCTCTCACTTATTTAAA”, the “cleaved RNA product abundance” value under setting [2] stood at 0.332.

Regarding “CGACATGTCCCGCTTCTTTCATTAATCCGTAAGCAACTGTTTTGCTATATACATTTAACATTTAAGAGGAGGAAT”, under setting [3], the “cleaved RNA product abundance” value turned out to be 0.275. In the case of “ACAGACGAAGGAGCCGCAAAGAAGTTATTAAGGGATGAATAATCCTTCATTATAAATATCTCTCACTTATTTAAA”, the “cleaved RNA product abundance” value under setting [2] was 0.313. Same read-out and setting: under “ACAGACGAAGGAGCCGCAAAGAAGTTATTAAGGGATGAATAATCCCTCAAAAGAAATATCTCTCACTTATTTAAA” stands 0.0815. For “CGACATGTCCCGCTTCTTTCATTAATCCGTTAGCAAATGTTTTGCTACATACATTTACCTTTTAAGAGGAGGAAT”, the “cleaved RNA product abundance” value under setting [3] stood at 0.354.
